Positions count from the first letter of the chain named. Bounds are passed on as bounds.

The labels stand for the following.
B1: CR8001 (antibody, V domains shown)
VH: EVQLVESGGGLIQPGGSLRLSCAASGFTVSSNYVSWVRQAPGKGLEWLSLIYTGGTTYYADSVKGRFTISRDNSKNTVFLQMNSLRAEDAAMYYCARVSALRFLQWPNYAMDV
VL: QSALTQPASVSGSPGRSITISCSGTRSDVGGHNYVSWYQQHPGKAPKLMIYEVSHRPSGVSNRFSGSKSGSTASLTISGLQSEDEADYYCSSYTGEGPLGV
B2: CR8039 (antibody, V domains shown)
VH: QLQLQESGPGLVKPSETLSLTCTVSGGSIGSYYWSWIRQPPGKGLEWIGYIYYRGGTSYNPSLKSRVTISVDTSKSQFTLKLNSVTAADTAVYYCARKDWGSAAGSVWYFDL
VL: QSALTQPPSASGSPGQSVTISCTGTSSDVGGYNYVSWYQQHPGKAPKLMIREVSKRPSGVPDRFSGSKSGNTASLTVSGLQAEDEAEYYCSSYAGSNNLI
B3: CR8018 (antibody, V domains shown)
VH: EVQLVETGGDLVQPGGSLRLSCSASEFSFSSYWMSWVRQAPGKGLEWVANMKQDGSEKYYVDSVKGRFTISRDNAKNSLYLQMNSLRGEDTAVYYCARGSCDDSWTGCHDAFDI
VL: B1 VL with R16Q, S23T, R26S, H32Y
B4: CR8003 (antibody, V domains shown)
VH: B3 VH
VL: VLTQPPSVSVAPGQTARIACGGNNIGSKSVHWYQQKPGQAPVLVVYDDSARPSGIPERFSGSNSGNTATLTISRVEAGDEADYYCQVWESGSDLRLL
B5: CR8015 (antibody, V domains shown)
VH: B3 VH with E1Q, V5Q, T7S
VL: VLTQPPSVSVAPGQTAKITCGGDNIGRKSVHWYQQKPGLAPVLVVNDNSDRPSGIPARFSGSNSGNTATLTISRVEAGDEADYYCHVWGSSRDHYV
B6: CR8017 (antibody, V domains shown)
VH: B3 VH
VL: SSELTQDPAVSVALGQTVRITCQGDSLRSYYASWYQQKPGQAPVLVIYAKTNRPSGIPDRFSGSTSGNTASLTITGAQAEDEADYYCNSRDSSGNHVV
B7: CR8016 (antibody, V domains shown)
VH: B3 VH with T7S
VL: QSVVTQPPSVSGAPGQRVTISCTGSSSNIGAGYDVHWYQQLPGTAPKLLIYGNNNRPSGVPDRFSGSRSGPLALLAITGLQAEDEADYYCQSYDSSLSVYV
B8: CR8049 (antibody, V domains shown)
VH: QVTLKESGPVLVKPKETLTLTCTVSGFSLSNTRMGVSWIRQPPGKALEWLAHIFSNDETSYRTSLKRRLTISQDISKSQVVLSMTNVDPADTATYFCARIGSGYESSAYSTWLDP
VL: QVQLQQWGAGLLKPSETLSLTCAVYGGSFTDHYWSWIRQSPGKGLEWIGEVVHSGDTNYTPSLRNRVSISVDSSKNQFSLRLGSVTAADTAVYYCARGRNVAVVGAIQRHYDY
B9: CR8052 (antibody, V domains shown)
VH: DIQLTQSPSSLSASVGDRVTITCRASQGINTYLNWYQQKPGKAPKVLIFAASTLQSGVPSRFSGSGSGTEFTLNINNLQPEDFATYYCQQSYSTAIT
VL: EVQLVESGGGVVQPGRSLRLSCAASGFSFTTYGMHWVRQAPGKGLEWVAFIWYDGSNKHYQDSVKGRFTISKDNSNNMLYLQMDSLRVADTAVYYCVRDGGYSTWEWYFDL

The first assay addresses 3 H1N1 strains (1999-2007). The assay is described as follows: cell-based or functional assay.
B1 registered an SK50 titer greater than 40 µg/mL.

The next assay addresses HA of virus A/Brisbane/59/2007 (H1N1) (influenza A virus (H1N1)). Description: cell-based or functional assay.
In the case of B2, the Neutralization titer SK50 is greater than 40 µg/mL.

Molecule B1 had a Neutralization titer SK50 greater than 40 µg/mL.

In turn, B3 showed a Neutralization titer SK50 greater than 40 µg/mL.

Molecule B4 gave a Neutralization titer SK50 greater than 40 µg/mL.

Regarding B5, the Neutralization titer SK50 was greater than 40 µg/mL.

In the case of B6, the Neutralization titer SK50 is greater than 40 µg/mL.

The molecule B7 registered a Neutralization titer SK50 greater than 40 µg/mL.

With B8, the Neutralization titer SK50 was greater than 40 µg/mL.

B9: the Neutralization titer SK50 is greater than 40 µg/mL.

The target of a further assay is HA of virus A/Chick/Germany/N/49 (H10) (influenza A virus (H10)). Description: cell-based or functional assay.
With B2, the Neutralization titer SK50 is greater than 40 µg/mL.

B1 gave a Neutralization titer SK50 greater than 40 µg/mL and an SK50 titer greater than 40 µg/mL.

In the case of B3, the Neutralization titer SK50 was greater than 40 µg/mL.

Take B4: the Neutralization titer SK50 is greater than 40 µg/mL.

On to B5, for which the Neutralization titer SK50 is greater than 40 µg/mL.

B6 registered a Neutralization titer SK50 greater than 40 µg/mL.

In the case of B7, the Neutralization titer SK50 was greater than 40 µg/mL.

As to B8, the Neutralization titer SK50 was greater than 40 µg/mL.

Regarding B9, the Neutralization titer SK50 is greater than 40 µg/mL.

Another assay deals with HA of virus A/Hiroshima/52/2005 (H3N2) (influenza A virus (H3N2)). Description: cell-based or functional assay.
On to B2, for which the Neutralization titer SK50 was found to be 3.26 µg/mL.

With B1, the Neutralization titer SK50 worked out at 13 µg/mL and the SK50 titer turned out to be 13 µg/mL.

For the molecule B3, the Neutralization titer SK50 came out at 8.45 µg/mL.

For B4, the Neutralization titer SK50 was 4.27 µg/mL.

B5 came in with a Neutralization titer SK50 of 28.3 µg/mL.

B6 had a Neutralization titer SK50 of 13.6 µg/mL.

Consider B7, for which the Neutralization titer SK50 stood at 8.84 µg/mL.

For the molecule B8, the Neutralization titer SK50 worked out at 3.54 µg/mL.

B9: the Neutralization titer SK50 is greater than 40 µg/mL.

For the next assay, the target named is HA of virus A/Johannesburg/33/94 (H3N2) (influenza A virus (H3N2)). Description: cell-based or functional assay.
Molecule B2 showed a Neutralization titer SK50 of 1.33 µg/mL.

Consider B1, for which the Neutralization titer SK50 is 6.51 µg/mL and the SK50 titer came to 6.5 µg/mL.

In turn, B3 returned a Neutralization titer SK50 greater than 40 µg/mL.

In turn, B4 displayed a Neutralization titer SK50 greater than 40 µg/mL.

B5 gave a Neutralization titer SK50 greater than 40 µg/mL.

With B6, the Neutralization titer SK50 was greater than 40 µg/mL.

In the case of B7, the Neutralization titer SK50 is greater than 40 µg/mL.

For the molecule B8, the Neutralization titer SK50 was greater than 40 µg/mL.

As to B9, the Neutralization titer SK50 is greater than 40 µg/mL.

Another assay addresses HA of virus A/Mallard/Netherlands/12/2000 (H7N3) (influenza A virus (H7N3)). The assay is described as follows: cell-based or functional assay.
Molecule B2 had a Neutralization titer SK50 greater than 40 µg/mL.

For B1, the Neutralization titer SK50 was greater than 40 µg/mL and the SK50 titer was greater than 40 µg/mL.

Take B3: the Neutralization titer SK50 is greater than 40 µg/mL.

As for B4, the Neutralization titer SK50 was greater than 40 µg/mL.

Regarding B5, the Neutralization titer SK50 was greater than 40 µg/mL.

Consider B6, for which the Neutralization titer SK50 was greater than 40 µg/mL.

In turn, B7 had a Neutralization titer SK50 greater than 40 µg/mL.

B8: the Neutralization titer SK50 is greater than 40 µg/mL.

Molecule B9 yielded a Neutralization titer SK50 greater than 40 µg/mL.

A further assay addresses HA of virus A/New Caledonia/20/1999 (H1N1) (influenza A virus (H1N1)). The assay is described as follows: cell-based or functional assay.
Take B2: the Neutralization titer SK50 is greater than 40 µg/mL.

B1 displayed a Neutralization titer SK50 greater than 40 µg/mL.

In turn, B3 had a Neutralization titer SK50 greater than 40 µg/mL.

Take B4: the Neutralization titer SK50 was greater than 40 µg/mL.

Molecule B5 showed a Neutralization titer SK50 greater than 40 µg/mL.

Turning to B6, the Neutralization titer SK50 was greater than 40 µg/mL.

The molecule B7 had a Neutralization titer SK50 greater than 40 µg/mL.

The molecule B8 displayed a Neutralization titer SK50 greater than 40 µg/mL.

As to B9, the Neutralization titer SK50 is greater than 40 µg/mL.

The target of the next assay is HA of virus A/Panama/2000/1999 (H3N2) (influenza A virus (H3N2)). Description: cell-based or functional assay.
On to B2, for which the Neutralization titer SK50 came out at 4.6 µg/mL.

As for B1, the Neutralization titer SK50 is greater than 40 µg/mL and the SK50 titer was greater than 40 µg/mL.

With B3, the Neutralization titer SK50 is greater than 40 µg/mL.

On to B4, for which the Neutralization titer SK50 is greater than 40 µg/mL.

In turn, B5 displayed a Neutralization titer SK50 greater than 40 µg/mL.

The molecule B6 gave a Neutralization titer SK50 greater than 40 µg/mL.

In the case of B7, the Neutralization titer SK50 came to 28.3 µg/mL.

B8: the Neutralization titer SK50 is greater than 40 µg/mL.

Turning to B9, the Neutralization titer SK50 amounted to 21.9 µg/mL.

The target in another assay is HA of virus A/Solomon Islands/IVR-145 (H1N1) (influenza A virus (H1N1)). Description: cell-based or functional assay.
For the molecule B2, the Neutralization titer SK50 was greater than 40 µg/mL.

B1 came in with a Neutralization titer SK50 greater than 40 µg/mL.

Molecule B3 yielded a Neutralization titer SK50 greater than 40 µg/mL.

B4 displayed a Neutralization titer SK50 greater than 40 µg/mL.

B5 came in with a Neutralization titer SK50 greater than 40 µg/mL.

Regarding B6, the Neutralization titer SK50 was greater than 40 µg/mL.

B7: the Neutralization titer SK50 was greater than 40 µg/mL.

As for B8, the Neutralization titer SK50 is greater than 40 µg/mL.

On to B9, for which the Neutralization titer SK50 is greater than 40 µg/mL.

The target in a further assay is HA of virus A/Wisconsin/67/2005 (H3N2) (influenza A virus (H3N2)). Description: cell-based or functional assay.
Consider B2, for which the Neutralization titer SK50 is 1.8 µg/mL.

For B1, the Neutralization titer SK50 came to 11.9 µg/mL and the SK50 titer is 11.9 µg/mL.

For the molecule B3, the Neutralization titer SK50 was determined as 6.03 µg/mL.

As to B4, the Neutralization titer SK50 worked out at 5.31 µg/mL.

Consider B5, for which the Neutralization titer SK50 was 23.8 µg/mL.

For the molecule B6, the Neutralization titer SK50 turned out to be 2.82 µg/mL.

Consider B7, for which the Neutralization titer SK50 worked out at 1.77 µg/mL.

Molecule B8 had a Neutralization titer SK50 of 3.26 µg/mL.

On to B9, for which the Neutralization titer SK50 is greater than 40 µg/mL.

The target of the next assay is full-length recombinant H1 HA (A/New Caledonia/20/1999) on PER.C6 cells (influenza A virus (H1N1)). Description: FACS, IgG 5 µg/ml, HA-expressing PER.C6 cells; untransfected MFI 3. For orientation: In flow cytometry, cells or beads pass a laser one at a time.
For the molecule B3, the MFI is 3 MFI.

As to B4, the MFI was 3 MFI.

As for B5, the MFI was found to be 4 MFI.

Take B6: the MFI amounted to 3 MFI.

B7: the MFI came out at 3 MFI.

Turning to B8, the MFI came out at 3 MFI.

The target of the next assay is full-length recombinant H3 HA (A/Wisconsin/67/2005) on PER.C6 cells (influenza A virus (H3N2)). The assay is described as above.
On to B3, for which the MFI is 348 MFI.

Consider B4, for which the MFI worked out at 657 MFI.

In the case of B5, the MFI turned out to be 600 MFI.

B6: the MFI is 558 MFI.

In the case of B7, the MFI was determined as 840 MFI.

As for B8, the MFI was found to be 542 MFI.

The next assay concerns the target full-length recombinant H7 HA (A/Netherlands/219/2003) on PER.C6 cells (influenza A virus (H7N7)). The assay is described as above.
As to B3, the MFI was 4 MFI.

Turning to B4, the MFI came to 5 MFI.

As for B5, the MFI was found to be 4 MFI.

On to B6, for which the MFI is 4 MFI.

Turning to B7, the MFI came out at 5 MFI.

As for B8, the MFI was determined as 4 MFI.

The target in another assay is full-length recombinant H1 HA (A/New Caledonia/20/1999) on PER.C6 cells (influenza A virus (H1N1)). The assay is described as follows: FACS, IgG 5 µg/ml, HA-expressing PER.C6 cells; untransfected MFI 4.
With B2, the MFI was determined as 4 MFI.

Take B1: the MFI came to 100 MFI.

With B9, the MFI was 4 MFI.

For a further assay, the target named is full-length recombinant H3 HA (A/Wisconsin/67/2005) on PER.C6 cells (influenza A virus (H3N2)). The assay is described as above.
On to B2, for which the MFI was determined as 503 MFI.

Consider B1, for which the MFI turned out to be 763 MFI.

Take B9: the MFI was determined as 364 MFI.

For another assay, the target named is full-length recombinant H7 HA (A/Netherlands/219/2003) on PER.C6 cells (influenza A virus (H7N7)). The description is as above.
Take B2: the MFI came to 4 MFI.

With B1, the MFI came to 106 MFI.

For the molecule B9, the MFI was found to be 5 MFI.

These data come from US20130309248A1.
